# Measured values published in patent US20030113828A1, “Compositions and methods for modulating Syk function” (priority 2001, published 2003).
# Where two headings read alike, the source gives them in different places. Square brackets hold non-standard residues; d marks the D form. Ends that are not written are not given here. Peptide text beside a SMILES is read from it. pY = N[C@@H](Cc1ccc(OP(=O)(O)O)cc1)C(=O)O
# How the values were obtained:
# [1] = molecular target: Syk(6-370) (Homo sapiens, UniProt P43405); conditions: Ottinger et al. 1998, cited from earlier work
# [2] = molecular target: T1, Syk (Homo sapiens, UniProt P43405); test: Syk kinase activation in vitro; assay type: biochemical
# [3] = molecular target: T2, binding of Syk(6-370) to the β3 tail (Homo sapiens, UniProt P43405); test: pITAM peptide competition in direct binding assay; conditions: soluble pITAM peptide 40 μM, 8000-fold molar excess
# T2 construct: made in house; host or cells: bacteria (pGEX vector, IPTG induction)
# Procedure: To verify that the Syk-β3 interaction is pITAM-independent mechanism, the effect of 8000-fold molar excess of PITAM peptides on binding of Syk(6-370) to the β3 tail was examined. […] Similar data were obtained in a quantitative enzyme-linked immunosorbent assay. The FcεRIγ pITAM peptides were functional, as they activated Syk kinase (EC50 1-2 μM) in vitro (Shiue et al.(1995) J Biol Chem 270:10498-10502). Thus, Syk recognition of β3 involves a unique specificity, distinct from Syk's interaction with pITAMs.
# (§1) Following incubation, beads were washed and bound protein was analyzed by immunoblotting.
# [4] = molecular target: T3, integrin β3 cytoplasmic tail (Homo sapiens, UniProt P05106); test: Affinity chromatography/direct binding of kinase fragments to integrin tail; conditions: recombinant fragments, direct binding assay
# T3 construct: made in house
# T3 sequence (P05106 742-788 limits assumed): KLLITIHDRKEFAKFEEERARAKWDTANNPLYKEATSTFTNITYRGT
# Procedure: as §1
# (§2) For direct binding assays, model peptides (1 mg) were dissolved in 1 ml buffer containing 20 mM Tris (pH 7.9), 500 mM NaCl, and 6 M urea. To this, 50 ul packed His-Bind® Resin (Novagen, Madison, Wis.) was added and the mixture was rotated for 1 hour at room temperature. Immobilized peptides were washed 5× in above buffer without urea, and resuspended in 500 μl buffer containing 20 mM PIPES pH 6.8, 50 mM NaCl, 3 mM MgCl2, 150 mM sucrose, 50 mM NaF, 40 mM Na4P2O7*10H2O (buffer A) supplemented with 0.1% TritonX-100 and 3 mM MgCl2. Purified GST-fusion proteins were added to 0.5 ml buffer A supplemented with 0.1% TritonX-100 and 3 mM MgCl2. Five μl of total packed resin loaded with various integrin cytoplasmic domain model proteins was added to the GST-fusion protein. The mixture was incubated for 40 minutes at room temperature with continuous rotation. The beads were then washed five times in buffer A with 0.1% TritonX-100 and 3 mM MgCl2. Bound proteins were eluted by boiling in reducing sample buffer, fractionated by SDS PAGE, and immuno-blotted.
# [5] = molecular target: T1, Syk; test: Affinity chromatography/direct binding of integrin tail model proteins to Syk; parameters: made in house; host or cells: bacteria (pGEX vector, IPTG induction)
# Procedure: (§3) Model protein mimics of integrin cytoplasmic domains αIIb, β1A, and β3 were prepared in accordance with procedures described by Pfaff et al. (1998) J Biol Chem 273:6104-6109). The β2 integrin cytoplasmic domain model protein was developed by PCR amplification of β2 cDNA using 5′-[…] (SEQ ID NO:7) and 3′-[…] (SEQ ID NO:8) primers. This primer set introduced a 5′ HindIII restriction site into the N-terminal region of the β2 cytoplasmic domain, resulting in the mutation, A725L. The 3′ primer contained a BamHI restriction site immediately downstream of dual stop codons. The PCR product was cloned into pCR2.1 as described in the TA Cloning® system (Invitrogen, Carlsbad, Calif.). After sequencing, pCR2.1-β2cyt was digested with BamHI and HindIII, and subcloned into a modified bacterial expression plasmid pET15bm (lacking the HindIII restriction site). All model proteins were verified by sequence analysis, expressed, HPLC purified and verified by electrospray ionization mass spectroscopy as described by Pfaff et al. ((1998) J Biol Chem 273:6104-6109).
# as §1, §2
# [6] = test system: Zap-70; test: Affinity chromatography/direct binding of integrin tail model proteins to Zap-70; parameters: species or system human; conditions: Zap-70 from cell lysates
# Procedure: (§4) A cDNA encoding residues 1-337 of human Zap-70 was cloned into pGEX-2T (Amersham Pharmacia Biotech).
# as §3, §1
# as §2, with “The beads were then washed five times in buffer A with 0.1% TritonX-100 and 3 mM MgCl2. Bound proteins were eluted by boiling in reducing sample buffer, fractionated by SDS PAGE, and immuno-blotted.” left out
# [7] = molecular target: T4, Zap-70 (Homo sapiens, UniProt P43403); test: as above; conditions: recombinant fragment, direct binding
# T4 construct: A cDNA encoding residues 1-337 of human Zap-70 was cloned into pGEX-2T; made in house; host or cells: bacteria (pGEX-2T, IPTG induction)
# T4 sequence (P43403 1-337): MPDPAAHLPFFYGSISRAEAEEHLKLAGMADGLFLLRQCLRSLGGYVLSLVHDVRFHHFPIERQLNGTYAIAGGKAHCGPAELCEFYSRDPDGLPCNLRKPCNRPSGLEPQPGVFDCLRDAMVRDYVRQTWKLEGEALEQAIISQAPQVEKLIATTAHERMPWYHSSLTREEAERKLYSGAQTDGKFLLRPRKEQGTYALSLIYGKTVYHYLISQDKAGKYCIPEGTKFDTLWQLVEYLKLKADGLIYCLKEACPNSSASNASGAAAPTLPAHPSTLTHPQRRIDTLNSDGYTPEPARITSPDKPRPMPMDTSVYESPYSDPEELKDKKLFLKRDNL
# Procedure: as §4, §3, §1
# as §2, with “The beads were then washed five times in buffer A with 0.1% TritonX-100 and 3 mM MgCl2. Bound proteins were eluted by boiling in reducing sample buffer, fractionated by SDS PAGE, and immuno-blotted.” left out
# [8] = molecular target: T5, Syk binding to the β3 tail model proteins (Homo sapiens, UniProt P43405); test: β3 peptide competition in direct binding assay; conditions: peptide 1×10^−4 M, Syk 5×10^−9 M
# T5 construct: made in house; host or cells: bacteria (pGEX vector, IPTG induction)
# Procedure: Phosphorylation of the β3 integrin cytoplasmic domain occurs as a consequence of integrin engagement (Law et al. (1996) J Biol Chem 271:10811-10815). To determine if phosphorylation of the β3 cytoplasmic domain could affect Syk binding, competition assays were performed using tyrosine phosphorylated or non-phosphorylated peptides in the context of the last 23 amino acids of the β3 cytoplasmic domain. Peptides were used at a concentration 1×10^−4 M, and Syk was used at a concentration of 5×10^−9 M. The non-phosphorylated peptide competed for integrin β3 tail binding to Syk. In three experiments, there was a 52±3.4% decrease in Syk binding to the β3 tail model proteins in the presence of non-phosphorylated β3-23 peptide as compared to the phosphorylated peptide (β3-23P). […] Furthermore, phosphorylation of β3(Y747,759) reduces its capacity to compete for Syk binding to the unphosphorylated β3 tail.
# as §2, with “The beads were then washed five times in buffer A with 0.1% TritonX-100 and 3 mM MgCl2. Bound proteins were eluted by boiling in reducing sample buffer, fractionated by SDS PAGE, and immuno-blotted.” left out
# For peptide competition assays, peptides were pre-incubated with Syk(6-370) for one hour before direct binding assays were performed. Peptides were used at a concentration of 1×10^−4 M, and Syk(6-370) was used at a concentration of 2×10^−9 M. Bound Syk was detected as described above. […]
# [9] = recombinant fragment, direct binding
molecule,measurement,setting,value
"CC(C)C[C@H](NC(=O)CNC(=O)[C@@H](NC(=O)[C@H](Cc1ccc(OP(=O)(O)O)cc1)NC(=O)[C@@H](NC(=O)CNC(=O)[C@@H](N)CC(=O)O)C(C)C)[C@@H](C)O)C(=O)N[C@@H](CO)C(=O)N[C@H](C(=O)N[C@@H](CCCNC(=N)N)C(=O)N[C@@H](CC(N)=O)C(=O)N[C@@H](CCC(N)=O)C(=O)N[C@@H](CCC(=O)O)C(=O)N[C@H](C(=O)N[C@@H](Cc1ccc(OP(=O)(O)O)cc1)C(=O)N[C@@H](CCC(=O)O)C(=O)N[C@H](C(=O)N[C@@H](CC(C)C)C(=O)N[C@@H](CCCCN)C(=O)N[C@H](C(=O)N[C@@H](CS)C(=O)N[C@@H](CCCNC(=N)N)C(=O)O)[C@@H](C)O)[C@@H](C)O)[C@@H](C)O)[C@@H](C)O [FcεRIγ ITAM peptide, DGVY(PO3)TGLSTRNQETY(PO3)ETLKTCR (SEQ ID NO:1)] (H-DGV[pY]TGLSTRNQET[pY]ETLKTCR-OH)",Kd,[1]; read-out: affinity of Syk for the dually phosphorylated FcεRIγ-ITAM,2.6 nM
same,Kd,"[1]; reported, read-out: Kd for the interaction between Syk(6-370) and the FcεRIγ pITAM peptide",2.6 nM
same,EC50,[2],1000 to 2000 nM
NQLY(PO3)NELNLGRREEY(PO3)DVLV (SEQ ID NO:2) (NQL[pY]NELNLGRREE[pY]DVLV) [dually-phosphorylated TCRξ chain ITAM peptide],competition with the β3 integrin cytoplasmic tail for binding to Syk(6-370),[3],failed to compete
Syk(163-270): Syk fragment containing only the C-terminal SH2 domain,binding to the β3 tail,[4],failed to bind
Syk(R195A): C-terminal SH2 domain mutant of Syk deficient in binding to pITAMs,binding to the β3 tail,[4],bound
Zap-70(1-162): N-terminal SH2 domain of Zap-70 with its intact IA domain,binding to the β3 tail,[4],bound β3 to a similar extent as the tandem SH2 domains
tandem SH2 domains of SHP-2: tandem SH2 domains of SHP-2,binding to the β3 tail,[4],did not bind
αIIb tail: αIIb integrin cytoplasmic tail model protein (KVGFFKRNRPPLEEDDEEGE; not fully specified),binding of Syk to integrin tail model protein,[5]; Syk from cell lysates,no detectable binding
same,binding of Syk to integrin tail model protein,[5]; [9],No binding was detected
same,binding of Zap-70 to integrin tail model protein,[6],no detectable binding
same,binding of Zap-70 to integrin tail model protein,[7],No binding was detected
β3(759X): β3 tail with deletion of the last 4 C-terminal residues (KLLITIHDRKEFAKFEEERARAKWDTANNPLYKEATSTFTNIT; not fully specified),binding of Syk to integrin tail model protein,[5]; [9],abolished
β3-23 peptide: non-phosphorylated peptide of the last 23 amino acids of the β3 cytoplasmic domain (DTANNPLYKEATSTFTNITYRGT),competition for integrin β3 tail binding to Syk,[8],competed
same,decrease in Syk binding to the β3 tail model proteins,"[8]; three experiments, compared to the phosphorylated peptide (β3-23P)",52±3.4%
"β3-23P: tyrosine phosphorylated peptide of the last 23 amino acids of the β3 cytoplasmic domain (DTANNPLYKEATSTFTNITYRGT; also: tyrosine phosphorylated, site not given here) [reference compound]",competition for integrin β3 tail binding to Syk,[8],did not detectably compete
β3: recombinant model protein mimic of dimerized integrin β3 cytoplasmic tail (KLLITIHDRKEFAKFEEERARAKWDTANNPLYKEATSTFTNITYRGT; also: dimerised via Fc or GST (left off)),binding of Syk to integrin tail model protein,[5]; Syk from cell lysates,bound
same,binding of Zap-70 to integrin tail model protein,[6],bound
β3752X: β3 tail with removal of 11 C-terminal residues Thr752-Thr762 (KLLITIHDRKEFAKFEEERARAKWDTANNPLYKEAT; not fully specified),binding of Syk to integrin tail model protein,[5]; [9],abolished
